Values of other authors in PMC11155677.

Target: Lys115 (UniProt position 115, LSAYPKKLGYP)

**Q.** For “Acetoacetate decarboxylase (AADase) (not stated (Clostridium acetobutylicum inferred))”, which pKa is on record?
**A.** Its pKa is 6.
